Laboratory results taken from article PMC10619557, “Crystal Structures of 6-Phosphogluconate Dehydrogenase from Corynebacterium glutamicum” (Journal of Microbiology and Biotechnology, 2023).

Tests used:
[1] = substrate: NC(=O)c1ccc[n+]([C@@H]2O[C@H](COP(=O)(O)OP(=O)(O)OC[C@H]3O[C@@H](n4cnc5c(N)ncnc54)[C@H](OP(=O)(O)O)[C@@H]3O)[C@@H](O)[C@H]2O)c1; test: purified protein; type: biochemical, Corynebacterium glutamicum; conditions: NADP 0.01-2 mM, 5 mM 6PG, 40 mM Tris-HCl pH 8.0, 20 °C, varied: cofactor
[2] = substrate: O=C(O)[C@H](O)[C@@H](O)[C@H](O)[C@H](O)COP(=O)(O)O; test: purified protein; type: biochemical, Corynebacterium glutamicum; conditions: 6PG 0.1-5 mM, 2 mM NADP, 40 mM Tris-HCl pH 8.0, 20 °C

B1: Cg6PGD (Corynebacterium glutamicum ATCC 13032) (protein)
chain: MTNGDNLAQIGVVGLAVMGSNLARNFARNGNTVAVYNRSTDKTDKLIADHGSEGNFIPSATVEEFVASLEKPRRAIIMVQAGNATDAVINQLADAMDEGDIIIDGGNALYTDTIRREKEISARGLHFVGAGISGGEEGALNGPSIMPGGPAKSYESLGPLLESIAANVDGTPCVTHIGPDGAGHFVKMVHNGIEYADMQVIGEAYHLLRYAAGMQPAEIAEVFKEWNAGDLDSYLIEITAEVLSQVDAETGKPLIDVIVDAAGQKGTGRWTVKAALDLGIATTGIGEAVFARALSGATSQRAAAQGNLPAGVLTDLEALGVDKAQFVEDVRRALYASKLVAYAQGFDEIKAGSDENNWDVDPRDLATIWRGGCIIRAKFLNRIVEAYDANAELESLLLDPYFKSELGDLIDSWRRVIVTATQLGLPIPVFASSLSYYDSLRAERLPAALIQGQRDFFGAHTYKRIDKDGSFHTEWSGDRSEVEA
notes: full length, 484 residues (Met1-Ala484), C-terminal His6 (pET-30a), E. coli BL21(DE3)-T1R
Work on B1 yielded a Km [1] of 162.8 ± 9.5 µM, a kcat [1] of 17.1 ± 0.282 s⁻¹ and a kcat/Km [1] of 105000 M⁻¹ s⁻¹. For the same protein, the Km [2] was 340.8 ± 30 µM, the kcat [2] was 19 ± 0.452 s⁻¹ and the kcat/Km [2] was 55700 M⁻¹ s⁻¹.
